In patent publication US20210340232A1, “MONOCLONAL ANTIBODIES AGAINST HUMAN DICKKOPF3 AND USES THEREOF” (Board of Regents, The University of Texas System, priority 2018, published 2021):

Tests used:
[1] = system: MPSCs; experiment: Proliferation of mouse PSCs by MTS assay at 7 days; type: cell-based
Experimental: (§1) FIGS. 12A-D. DKK3 expression in mouse PSCs and effects of treatment with DKKC mAb on survival. (FIG. 12A) Western blot analysis of recombinant human and mouse DKK3 under denaturing and non-denaturing conditions using JM6-6-1 mAb. (FIG. 12B) Expression of murine DKK3 in murine PSCs (MPSC) or 3T3 cells was determined by RT-PCR. 18S was used as loading control. (FIG. 12C) Proliferation of MPSCs treated with DKK3 mAb was measured at 7 days by MTS assay. ***p<0.001 vs. PBS. (FIG. 12D) Pdx1-Cre; Kras LSL-G12D;Trp53fl/+ model of PDAC was treated with DKK3 mAb JM6-6-1 or control mAb JM4-74 (5 mg/kg i.p. q5d). Kaplan-Meier survival curves are shown (log rank test). At 0% survival, the right line is JM6-6-1, the middle lines is PBS, and the left line is Control Ab.
Cell-based assays. Cell proliferation was measured by the MTS assay (Promega, Madison, Wis.). Cell migration and invasion studies with stimulation by recombinant human DKK3 (R&D, Minneapolis, Minn.) were performed using 6.5-mm Transwell® with 8.0-μm pore membrane Insert (Corning Incorporated) and BioCoat Matrigel-coated invasion chambers (BD Biosciences, Bedford, Mass.).

[2] = system: BxPC3 orthotopic tumors; experiment: Orthotopic BxPC3 tumors without HPSCs in nude mice; type: in vivo, mouse; conditions: BxPC3 alone; 5 mg/kg i.p. once every 5 days; vs PBS or isotype control mAb
Experimental: FIGS. 11A-C. DKK3 expression in autochthonous model of PDAC and effects of DKK3 mAb on cell surface binding of DKK3 and orthotopic model. (FIG. 11A) DKK3 expression was measured by qPCR in pancreatic tumors from P48-Cre; Kras LSL-G12D;Trp53fl/fl and P48-Cre; Kras LSL-G12D;Trp53fl/+ mice that are either wild type DKK3 or heterozygous or homozygous DKK3-null. Relative expression of DKK3 mRNA in DKK3+/− hetero mice is 53% of DKK3^+/+ mice. (FIG. 11B) DKK3 cell surface binding was assessed by incubating BxPC3 or L3.6p1 cells with His-tagged rhDKK3 (10 μg/ml) with or without JM6-6-1 (70 μg/ml) and positive cells were sorted by flow cytometry. (FIG. 11C) Mice bearing orthotopic BxPC3 tumors were treated with DKK3 mAb JM6-6-1 (5 mg/kg i.p. once every 5 days). Overall tumor progression was measured every 3-4 days by IVIS imaging.
An orthotopic nude mouse model of PDAC using BxPC3 cancer cells labeled with firefly luciferase (BxPC3-FL) co-injected with HPSCs has been previously described (Hwang et al., 2008). Mice received intrapancreatic injections of BxPC3-FL (1×10^6 per mouse) with HPSC-shControl or HPSC-shDKK3 in a tumor-to-stroma ratio of 1:0 or 1:3 in 50-μL of HBSS and tumor growth was monitored using IVIS imaging (Hwang et al., 2008). In addition, a syngeneic immunocompetent DKK3 null model was used, provided by Dr. C. […]

[3] = system: Pdx1-Cre GEMM model of PDAC; experiment: Survival in Pdx1-Cre GEMM model of PDAC; type: in vivo, mouse; conditions: 5 mg/kg i.p. q5d
Experimental: as §1
Two GEMMs of PDAC that differ in the pancreas-specific promoter to target oncogenic Kras expression (Hingorani et al., 2005; Hingorani et al., 2003) were used in the experiments to evaluate the effect of DKK3 neutralizing mAb (Pdx1-Cre; Kras^LSL-G12D; Trp53^R172H/+ and P48-Cre; Kras^LSL-G12D; Trp53^fl/fl). To evaluate the effects of genetic ablation of DKK3 on pancreatic cancer development, DKK3-null mice were crossed to P48-Cre; Kras^LSL-G12D;Trp53^R172H or P48-Cre; Kras^LSL-G12D; Trp53^fl/fl mice (Hingorani et al., 2005; Hingorani et al., 2003), and the progeny were monitored until they were moribund. […]

B1: JM6-6-1: monoclonal antibody against human DKK3; heavy chain variable SEQ ID NO: 19, light chain variable SEQ ID NO: 20 (antibody, V domains shown)
VH: EVKLVESGGGLVKPGGSLKLSCAASGFTFTIEYMAWIRQTPEKRLEWVASISSGGDDIYYADNVKGRFTISRDNAKNTLYLQMSSLKSEDTAIYYCSRSLSDWGQGTTLTVSSAKTTPPSDYPLA
VL: MTQTPLSLPVSLGDQASISCRSSQSILHSNGHTYLEWYLQKPGQSPKLLIYKVSNRFSGVPDRFSGSGSGTDFTLKISRVEAEDLGVYYCFQGSHVPFTFGSGTKLEIERADAAQ
proliferation of mouse PSCs [1]: inhibited proliferation | tumor response without HPSCs [2]: no significant change | effect on survival [3]: equally effective
